Experimental data taken from US20230071609A1 (Genentech, published 2023).

T1: circulating APOL1 in normal human serum (human, UniProt O14791 28-398)
T1 sequence (looked up): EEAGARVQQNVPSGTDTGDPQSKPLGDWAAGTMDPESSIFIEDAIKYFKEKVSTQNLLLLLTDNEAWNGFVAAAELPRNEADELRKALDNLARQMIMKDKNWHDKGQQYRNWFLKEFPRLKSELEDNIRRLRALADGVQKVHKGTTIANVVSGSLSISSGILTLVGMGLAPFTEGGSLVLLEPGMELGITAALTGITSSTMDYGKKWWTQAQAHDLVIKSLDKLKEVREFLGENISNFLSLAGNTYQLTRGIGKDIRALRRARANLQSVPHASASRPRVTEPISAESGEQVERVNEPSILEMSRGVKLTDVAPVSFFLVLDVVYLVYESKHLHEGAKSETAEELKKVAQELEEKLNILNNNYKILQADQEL

T2: untagged APOL1-G0, KIK variant, transiently expressed (COS cells) (human, UniProt O14791 29-398)
T2 construct: Origene SC109941 clone with E150K, M228I, R255K
T2 chain: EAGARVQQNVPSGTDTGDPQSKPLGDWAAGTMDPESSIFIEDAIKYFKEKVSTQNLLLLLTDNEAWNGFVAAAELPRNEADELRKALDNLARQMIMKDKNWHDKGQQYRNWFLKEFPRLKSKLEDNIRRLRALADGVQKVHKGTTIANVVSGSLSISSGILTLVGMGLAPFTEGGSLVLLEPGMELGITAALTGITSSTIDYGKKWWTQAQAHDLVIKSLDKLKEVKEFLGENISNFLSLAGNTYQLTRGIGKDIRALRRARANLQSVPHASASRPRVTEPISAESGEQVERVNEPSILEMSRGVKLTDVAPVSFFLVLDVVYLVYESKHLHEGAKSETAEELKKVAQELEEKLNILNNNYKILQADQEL

T3: APOL6-myc-FLAG (human, UniProt Q9BWW8 1-343)
T3 construct: whole, on cells; In fixed, permeabilized transfected COS cells; untagged APOL6 in the western blots; not shown: C-terminal myc-FLAG tag
T3 sequence (looked up): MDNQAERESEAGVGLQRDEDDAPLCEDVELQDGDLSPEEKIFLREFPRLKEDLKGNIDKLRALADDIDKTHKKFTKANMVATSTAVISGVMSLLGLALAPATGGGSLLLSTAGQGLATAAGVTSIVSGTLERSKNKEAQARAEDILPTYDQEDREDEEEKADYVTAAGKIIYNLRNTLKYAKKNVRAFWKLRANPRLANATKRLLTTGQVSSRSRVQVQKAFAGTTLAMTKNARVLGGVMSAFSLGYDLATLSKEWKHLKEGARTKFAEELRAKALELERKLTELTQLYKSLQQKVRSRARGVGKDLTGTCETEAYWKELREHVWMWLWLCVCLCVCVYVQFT

T4: endogenous human APOL1 (wild-type immortalized podocytes; also JHH-1 cells, kidney and liver tissue) (human, UniProt O14791 28-398)
T4 construct: whole, on cells; Cell or tissue and permeabilization are told under assay; also called podocyte APOL1; endogenous APOL1
T4 sequence (looked up): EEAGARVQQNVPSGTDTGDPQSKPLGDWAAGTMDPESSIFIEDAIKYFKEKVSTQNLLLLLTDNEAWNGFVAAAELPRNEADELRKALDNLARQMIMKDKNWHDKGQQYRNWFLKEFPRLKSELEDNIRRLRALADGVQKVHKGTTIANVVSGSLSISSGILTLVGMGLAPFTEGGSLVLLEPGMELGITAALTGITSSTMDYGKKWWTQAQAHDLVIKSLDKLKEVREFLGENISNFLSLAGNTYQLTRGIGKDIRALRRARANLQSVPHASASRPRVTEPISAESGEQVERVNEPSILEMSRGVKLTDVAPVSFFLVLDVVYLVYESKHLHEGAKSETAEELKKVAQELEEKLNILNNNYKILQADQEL


Tests used:
[1] = molecular target: T1, circulating APOL1 in normal human serum; experiment: cell-based or functional assay
[2] = molecular target: T2, untagged APOL1-G0, KIK variant, …; experiment: immunofluorescence on transfected COS cells, 1 µg/ml; grade
APOL6-myc-FLAG = molecular target: T3, APOL6-myc-FLAG; experiment: immunofluorescence on transfected COS cells; grade
From the text: COS cells were transfected as in FIG. 31A except APOL1 and APOL2 were also C-terminally myc-FLAG tagged. Overlays of APOL with epitope tags: either mouse anti-FLAG-M2 or mouse anti-myc 9E10 for anti-APOL1 rabmabs; or rabbit anti-Myc 71D10 in conjunction with mouse anti-APOL1. Signals indicate the two antibodies overlap (i.e. anti-APOL1 cross-reacts with that APOL); signals (epitope tag only) indicate no cross-reactivity. Alexa647 anti-rabbit or mouse were used for the tags to rule out the possibility that any colocalization was a bleed-through artifact. Sparsely transfected areas were imaged to permit evaluation of background staining in adjacent untransfected cells—DAPI nuclear staining identifies both untransfected and transfected cell nuclei. […] Note that none of the antibodies cross-reacted with the more distantly related APOL6. *, APOL2-myc-FLAG is presumably misfolded, since it is not as cross-reactive as untagged APOL2 (compare FIG. 31A) with several antibodies. Commercial antibodies are Sigma HPA018885, Epitomics EPR2907 (2) (Epito) and Proteintech 11486-2-AP (Ptech).
Cells were plated on LabTekII (Nalge Nunc 154534) slides and fixed at 70-100% confluency. For mAb screening, cells were fixed/permeabilized for 5 min in −20° C. methanol (EMD MX0485-6). For all other experiments, cells were fixed in 3% paraformaldehyde in PBS (EMS 15710) for 20 mins at room temperature, quenched with 50 mM NH₄Cl in PBS for 10 mins, then permeabilized with 0.1% TX-100 in PBS for 4 mins or for 1h in saponin buffer [0.4% saponin (Sigma S7900), 1% bovine serum albumin (BSA; Sigma A2153), 2% fetal bovine serum (Seradigm) in PBS]. First antibodies (stored sterile at 4° C.) were applied for 1 h at room temperature, at 1 μg/ml for screening on transfected cells or at subsequently optimized concentrations for detecting endogenous APOL1. After 3×10 min washes in PBS (for Methanol or TX-100 protocols) or saponin buffer (saponin protocol), secondary antibodies were applied at 1.88 μg/ml for 1 h at room temperature, washed 3× and mounted under No. 1.5 coverslips in ProLong Gold with DAPI (4′,6-diamidino-2-phenylindole; Life Technologies P36931).

[3] = molecular target: T1, circulating APOL1 in normal human serum; experiment: summary of the Examples: trypanolysis blocking as proxy for serum APOL1
Description: The trypanolysis assay used herein to text specificity of antibodies for serum APOL1 is as follows. Trypanosoma brucei brucei were obtained from ATCC and cultured in HMI-9 media containing IMDM (Genentech), heat-inactivated (56° C. for 30 min) FBS (Seradigm IXL9/06807/GEN), 1% serum plus (Sigma 14008C), HMI-9 (Genentech) and 1% hypoxanthine (Genentech). Trypanosome lysis was performed by treating 1×10⁵ Trypanosomes with serial dilutions of NHS or recombinant APOL1 for 16 h in a total of 100 μl. Live cell read out was done by the Alamar Blue assay as per the manufacturer's protocol, (Thermo Fisher, DAL1100). Briefly 10 μl of Alamar Blue was added to each well, incubated at 37° C. for 4 h. Red fluorescence, indicating live trypanosomes, was measured on a SpectraMax® fluorimeter powered by SoftMAX® PRO with excitation at 530 nm and emission 590 nm. For the antibody blocking assay, 1% normal human serum was preincubated with 1-10 μg/ml of anti-APOL1 antibody or media at room temperature for 20 minutes followed by addition of trypanosomes. After 16 h, the Alamar Blue assay was performed as above and background values for media only were subtracted and % blocking calculated by normalizing to no antibody control.
Trypanosoma brucei brucei were obtained under MTA from ATCC and cultured in HMI-9 media containing IMDM (Genentech), heat-inactivated (56° C. for 30 min) FBS (Seradigm IXL9/06807/GEN), 1% serum plus (Sigma 14008C), HMI-9 (Genentech) and 1% hypoxanthine (Genentech). Trypanosome lysis was performed by treating 1×10⁵ Trypanosomes with serial dilutions of NHS or recombinant APOL1 for 16 h in a total of 100 μl. Live cell read out was done by the Alamar Blue assay as per the manufacturer's protocol (30) (Thermo Fisher, DAL1100). Briefly 10 μl of Alamar Blue was added to each well, incubated at 37° C. for 4 h. Red fluorescence, indicating live trypanosomes, was measured on a SpectraMax fluorimeter powered by SoftMAX PRO with excitation at 530 nm and emission 590 nm. For the antibody blocking assay, 1% normal human serum was preincubated with 1-10 μg/ml of anti-APOL1 antibody or media at room temperature for 20 mins followed by addition of trypanosomes.

[4] = molecular target: T4, endogenous human APOL1 (wild-type …); experiment: summary of the Examples: podocyte flow cytometry
Description: Cells were harvested with 5 mM EDTA in PBS, washed once with growth media and twice with PBS. Approximately 0.5×10⁶/m1 of cells resuspended in PBS were incubated with anti-APOL1 antibodies for 1 h on ice. Following two PBS washes, 2 μg/ml of Alexa488 anti-mouse or anti-rabbit (Invitrogen A11029 and A21206, respectively) was used for 1 h on ice for detection. Cells were washed twice in PBS and resuspended in PBS with 1 μg/ml propidium iodide. Signals were read in a FACSCalibur3 (Becton Dickinson), with the exception of FIG. 8A and FIG. 14, which used a FACSCelesta, and data was analyzed using FlowJo v8.4.5. Mean fluorescence intensities were plotted in PRISM v7 after subtraction of secondary antibody alone background. For low pH experiments, cells were incubated with the antibodies in the presence of PBS pH 7.0 or PBS pH 5.5 for an hour on ice and detected with secondary antibodies at neutral pH.

Binder | IC50 of blocking of serum APOL1-mediated trypanolysis (Alamar Blue) [1] [nM] | binding result [2] | binding result (APOL6-myc-FLAG) | binding result [3] | binding result [4]
antibody 3.1C7 (antibody, Mouse mAb, cloned as murine IgG2a LALAPG; also called SRA-ID antibody 3.1C7) heavy: EVQLQQSGTVLSRPGASVKMSCKASGYTMTSYWMHWIKQRPGQGLEWIGAIYPGKSDIKYNQKFKDKAKLTAVTATSTAYMEINSLTNEDSAVYYCTNSIPFVYWGQGTLITVSAASTKGPSVYPLAPVCGDTTGSSVTLGCLVKGYFPEPVTLTWNSGSLSSGVHTFPAVLQSDLYTLSSSVTVTSSTWPSQSITCNVAHPASSTKVDKKIEPRGPTIKPCPPCKCPAPNAAGGPSVFIFPPKIKDVLMISLSPIVTCVVVDVSEDDPDVQISWFVNNVEVHTAQTQTHREDYNSTLRVVSALPIQHQDWMSGKEFKCKVNNKDLGAPIERTISKPKGSVRAPQVYVLPPPEEEMTKKQVTLTCMVTDFMPEDIYVEWTNNGKTELNYKNTEPVLDSDGSYFMYSKLRVEKKNWVERNSYSCSVVHEGLHNHHTTKSFSRTPGK light: DIVMTQSPSSLTVTAGEKVTMSCKSSQSLLNSENQKKYLTWFQQKPGQPPKLLIYWTSTRYSGIPDRFTGSGSGTVFTLTISSVQADDLAVYYCQNDYSYPLTFGGGTKLEIKRADAAPTVSIFPPSSEQLTSGGASVVCFLNNFYPKDINVKWKIDGSERQNGVLNSWTDQDSKDSTYSMSSTLTLTKDEYERHNSYTCEATHKTSTSPIVKSFNRNEC | 1 | binds | no binding (tested: 1 µg/ml) |  | 
antibody 4.2C4 (antibody, V domains shown, Mouse mAb, cloned as murine IgG2a LALAPG) VH: QVQLQQSGPELVKPGASVKMSCKASGYTFTDYVISWVKQRTGQGLEWIGEMFPGSGTTYYTEKFRGKATLTADKSSNTAYMQLSSLTSEDSAVYFCARGTTADYWGQGTTLTVSS VL: ENVLTQSPAIMSASLGEKVTMSCRASSSVNYMYWYQQKSDASPKLWIYYTSNLAPGVPARFSGSGSGNSYSLTISSMEGEDAATYYCQQFTSSPYTFGGGTKLEIKR |  | binds | no binding (tested: 1 µg/ml) |  | 
antibody 3.2C11 (antibody, V domains shown, Mouse mAb, cloned as murine IgG2a LALAPG) VH: QVQLQQSGAELVRPGASVKLSCKALGYTFTDYEIHWVKQTPVHGLEWIGGIHPGNGGTAYNPKFKGKATLTADTSSSTASMELSSLTSEDSAVYYCTDWVDYWGQGTTLTVSS VL: DVVVTQTPLSLPVNFGDQVSISCRSSQSLVNRHGITYLSWYLHKPGQSPQLLIYEISNRFSGVPDRFSGSGSGTDFTLKISTIKPEDLGMYYCFQGTHQPFTFGGGTKLEIKR |  |  |  | binds | 

Second part, led by results:

IC50 of blocking of serum APOL1-mediated trypanolysis (Alamar Blue) [1] [nM] | binding result [2] | binding result (APOL6-myc-FLAG) | binding result [3] | Binder | binding result [4]
 |  |  | binds | antibody 3.4G10 (antibody, V domains shown, Mouse mAb, cloned as murine IgG2a LALAPG) VH: DVQLQESGPDLVKPSQSLSLTCTVTGYSITSGESWHWIRHFPGNELEWMGFIHYSGSANYNPSLKSRISITRDTSKNQFFLQLLSVTTDDTATYYCARSVYNYDGAWFPYWGQGTLVTVSA VL: QIVLTQSPVIMSASPGERVTLTCSASSSVSSSYLNWYQLKPGSSPKVWIYRTSNLASGVPARFSGSGSGTSYSLTISSMEAEDAASYFCHQWSAYPPTFGGGTKLEIKR | binds
 |  | no binding (tested: 1 µg/ml) |  | rabbit monoclonal antibody 5.17H8 (antibody, V domains shown, Rabbit mAb (Method #5), recombinant; also called rabmab 5.17H8) VH: QSLEESGGRLVTPGTPLTLTCTVSGIDLSSYAMGWVRQAPGKGLEWIGIISSSGSTHYASWAKGRFTISKTSTTVDLKITSPTTEDTATYFCARARAGSTYYTGYYFNLWGQGTLVTVSS VL: AIEMTQTASPVSAAVGGTVTINCQASESIYSNLAWYQQKPGQRPKLLIYGASTLESGVPSRFKGSGSGTEYTLTISDLECDDAATYYCQSGYYGISAINNAFGGGTEVVVKG | 
